We go through one molecule from paper PMC4706430 (2016).

The target of the assay is kallikrein (human, UniProt P03952 20-638).
kallikrein, sequence (P03952 20-638): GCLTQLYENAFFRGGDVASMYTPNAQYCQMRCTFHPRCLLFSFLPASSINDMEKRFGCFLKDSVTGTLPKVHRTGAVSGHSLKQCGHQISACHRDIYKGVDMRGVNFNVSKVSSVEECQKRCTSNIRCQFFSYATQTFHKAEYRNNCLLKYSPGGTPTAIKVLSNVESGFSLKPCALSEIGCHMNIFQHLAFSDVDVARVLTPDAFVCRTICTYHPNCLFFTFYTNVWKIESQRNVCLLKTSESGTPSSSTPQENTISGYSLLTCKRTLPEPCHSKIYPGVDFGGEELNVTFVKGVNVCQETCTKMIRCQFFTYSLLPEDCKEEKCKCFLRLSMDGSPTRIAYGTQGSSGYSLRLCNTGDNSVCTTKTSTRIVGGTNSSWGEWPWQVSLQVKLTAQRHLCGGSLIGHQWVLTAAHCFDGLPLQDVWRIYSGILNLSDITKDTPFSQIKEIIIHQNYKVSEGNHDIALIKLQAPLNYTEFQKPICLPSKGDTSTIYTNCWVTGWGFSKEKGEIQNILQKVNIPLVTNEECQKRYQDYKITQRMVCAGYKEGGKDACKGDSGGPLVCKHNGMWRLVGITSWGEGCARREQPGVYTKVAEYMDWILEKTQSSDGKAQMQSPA

B1: Boophilin (natural protein)
chain: QRNGFCRLPADEGICKALIPRFYFNTETGKCTMFSYGGCGGNENNFETIEDCQKACGAPERVSDFEGADFKTGCEPAADSGSCAGQLERWFYNVRSGECETFVYGGCGGNDNNYESEEECELVCKNM
modifications: N-terminus blocked (Edman degradation)
Turning to B1, the Ki was 0.919 µM.
